In patent publication US20240082346A1 (MAINLINE BIOSCIENCES SHANGHAI, published 2024):
Bridge positions count the residues as written; N and C are the ends. Square brackets hold non-standard residues; d marks the D form. * marks the point of attachment. 2Nal = N[C@@H](Cc1ccc2ccccc2c1)C(=O)O; Lys(iPr) = CC(C)NCCCC[C@H](N)C(=O)O; Palmitoyl = CCCCCCCCCCCCCCCC(=O)*; Lauroyl = CCCCCCCCCCCC(=O)*; hCys = N[C@@H](CCS)C(=O)O; PhAc = O=C(Cc1ccccc1)*; Bz = O=C(c1ccccc1)*; Mpa = O=C(O)CCS; iPr = CC(C)*

Target: T1, Human chemokine receptor CXCR4 (human, UniProt P61073 1-352)
T1 construct: whole, on cells; Membranes of Chem-1 cells expressing human CXCR4 (0.5 ug membrane protein per aliquot); also called C-X-C chemokine receptor type 4; fusin
T1 sequence (P61073 whole entry): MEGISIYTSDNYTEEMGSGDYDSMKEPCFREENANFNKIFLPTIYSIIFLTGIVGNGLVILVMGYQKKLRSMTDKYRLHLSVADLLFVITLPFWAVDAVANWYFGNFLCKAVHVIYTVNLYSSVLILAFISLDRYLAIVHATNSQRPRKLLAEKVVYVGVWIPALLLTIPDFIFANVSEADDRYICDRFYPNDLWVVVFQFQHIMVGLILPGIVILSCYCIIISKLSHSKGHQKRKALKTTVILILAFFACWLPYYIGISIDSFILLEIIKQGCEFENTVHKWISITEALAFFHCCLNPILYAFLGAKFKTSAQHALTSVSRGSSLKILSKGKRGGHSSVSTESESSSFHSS
Experiment: displacement of [125I]SDF-1α (0.03 nM) from membranes of Chem-1 cells expressing human CXCR4
Method: Human CXCR4/¹²⁵I-SDF-1α Binding Inhibition Assay: Human chemokine receptor CXCR4 expressed in Chem-1 cells were used in modified HEPES buffer pH 7.4. A 0.5 μg (Membrane protein may change from lot to lot, the concentration used were adjusted as necessary), aliquot was incubated with 0.03 nM [¹²⁵I]SDF-1α for 90 minutes at 25° C. Non-specific binding was estimated in the presence of 30 nM SDF-la. Membranes were filtered and washed, filters were then counted to determine [¹²⁵I]SDF-1α specifically bound. Compounds were screened starting at 10 μM with 11-point dilutions (Valenzuela-Fernandez A, et al. J Biol Chem. 277(18):15677, 2002).

Molecule	Binding Kb	IC50
[Mpa]Y[Lys(iPr)][dR][2Nal]GC[Lys(iPr)]G[2Nal]G-NH2 (disulfide 1-7)	0.29 nM	0.95 nM
[Mpa]RYR[2Nal]GCRG[dF]G-NH2 (disulfide 1-7; also: acetate salt, Acetate salt; also called MLB-011) [cyclo[Mpa-Arg-Tyr-Arg-2Nal-Gly-Cys]-Arg-Gly-(D-Phe)-Gly-NH2]	> 1000 nM	
[Mpa]YK(iPr)[dR][2Nal]GCK(iPr)G-NHEt (disulfide 1-7; also: acetate salt, Acetate salt; also called MLB-014) [cyclo[Mpa-Tyr-Lys(iPr)-(D-Arg)-2Nal-Gly-Cys]-Lys(iPr)-Gly-NH(Et)]	0.19 nM	0.64 nM
Bz-CYK(iPr)[dR][2Nal]GCK(iPr)G-NH2 (disulfide 1-7; also: acetate salt, Acetate salt; also called MLB-023) [Benzoyl-cyclo[Cys-Tyr-Lys(iPr)-(D-Arg)-2Nal-Gly-Cys]-Lys(iPr)-Gly-NH2]	1 nM	3.4 nM
Bz-CYK(iPr)[dR][2Nal]G[hCys]K(iPr)G-NH2 (disulfide 1-7; also: acetate salt, Acetate salt; also called MLB-022) [Benzoyl-cyclo[Cys-Tyr-Lys(iPr)-(D-Arg)-2Nal-Gly-hCys]-Lys(iPr)-Gly-NH2]	0.21 nM	0.71 nM
Bz-CYK(iPr)[dR][2Nal]GCK(iPr)G-NH2 (linker 1-7 via 1,2‑bis(methylene)benzene; also: acetate salt, Acetate salt) [MLB-030 (compound of Example 20; structure given only as drawing CHEM-US-00013)]	0.39 nM	1.3 nM
Ac-CYK(iPr)[dR][2Nal]GCK(iPr)G-NH2 (linker 1-7 via 1,2‑bis(methylene)benzene; also: acetate salt, Acetate salt) [MLB-032 (compound of Example 22; structure given only as drawing CHEM-US-00015)]	0.12 nM	0.4 nM
Ac-CYK(iPr)[dR][2Nal]GCK(iPr)G-NH2 (linker 1-7 via 1,3‑bis(methylene)benzene; also: acetate salt, Acetate salt) [MLB-033 (compound of Example 23; structure given only as drawing CHEM-US-00016)]	0.99 nM	3.3 nM
[Mpa]YK(iPr)[dR][2Nal]GCK(iPr)K(Ac)-NHEt (disulfide 1-7; also: acetate salt, Acetate salt; also called MLB-027) [cyclo[Mpa-Tyr-Lys(iPr)-(D-Arg)-2Nal-Gly-Cys]-Lys(iPr)-Lys(Ac)-NH(Et)]	0.15 nM	0.48 nM
[Mpa]YK(iPr)[dR][2Nal]GCK(iPr)K(Lauroyl)-NHEt (disulfide 1-7; also: acetate salt, Acetate salt; also called MLB-028) [cyclo[Mpa-Tyr-Lys(iPr)-(D-Arg)-2Nal-Gly-Cys]-Lys(iPr)-Lys(lauroyl)-NH(Et)]	2.5 nM	8.2 nM
[Mpa]YK(iPr)[dR][2Nal]GCK(iPr)K(Palmitoyl)-NHEt (disulfide 1-7; also: acetate salt, Acetate salt; also called MLB-029) [cyclo[Mpa-Tyr-Lys(iPr)-(D-Arg)-2Nal-Gly-Cys]-Lys(iPr)-Lys(palmitoyl)-NH(Et)]	3.2 nM	11 nM
[Mpa]YK(iPr)[dR][2Nal]GCRG[dF]G-NH2 (disulfide 1-7; also: acetate salt, Acetate salt; also called MLB-002) [cyclo[Mpa-Tyr-Lys(iPr)-(D-Arg)-2Nal-Gly-Cys]-Arg-Gly-(D-Phe)-Gly-NH2]	0.28 nM	0.92 nM
[Mpa]YR[dR][2Nal]GCRG[dF]G-NH2 (disulfide 1-7; also: acetate salt, Acetate salt; also called MLB-001) [cyclo[Mpa-Tyr-Arg-(D-Arg)-2Nal-Gly-Cys]-Arg-Gly-(D-Phe)-Gly-NH2]	7.3 nM	24 nM
Ac-[hCys]YK(iPr)[dR][2Nal]GCK(iPr)G-NH2 (disulfide 1-7; also: acetate salt, Acetate salt; also called MLB-010) [Ac-cyclo[hCys-Tyr-Lys(iPr)-(D-Arg)-2Nal-Gly-Cys]-Lys(iPr)-Gly-NH2]	0.17 nM	0.56 nM
Bz-[hCys]YK(iPr)[dR][2Nal]GCK(iPr)G-NH2 (disulfide 1-7; also: acetate salt, Acetate salt; also called MLB-021) [Benzoyl-cyclo[hCys-Tyr-Lys(iPr)-(D-Arg)-2Nal-Gly-Cys]-Lys(iPr)-Gly-NH2]	0.13 nM	0.42 nM
Bz-[hCys]YK(iPr)[dR][2Nal]GCK(iPr)G-NHEt (disulfide 1-7; also: acetate salt, Acetate salt; also called MLB-024) [Benzoyl-cyclo[hCys-Tyr-Lys(iPr)-(D-Arg)-2Nal-Gly-Cys]-Lys(iPr)-Gly-NH(Et)]	0.39 nM	1.3 nM
PhAc-[hCys]YK(iPr)[dR][2Nal]GCK(iPr)G-NH2 (disulfide 1-7; also: acetate salt, also called MLB-025) [Phenylacetyl-cyclo[hCys-Tyr-Lys(iPr)-(D-Arg)-2Nal-Gly-Cys]-Lys(iPr)-Gly-NH2]	0.25 nM	0.84 nM
Ac-[hCys]YK(iPr)[dR][2Nal]GCK(iPr)G-NHEt (disulfide 1-7; also: acetate salt, Acetate salt; also called MLB-026) [Ac-cyclo[hCys-Tyr-Lys(iPr)-(D-Arg)-2Nal-Gly-Cys]-Lys(iPr)-Gly-NH(Et)]	0.27 nM	0.89 nM
[Mpa]YK(iPr)[dR][2Nal]GC[dR]G[dF]G-NH2 (disulfide 1-7; also: acetate salt, also called MLB-004) [cyclo[Mpa-Tyr-Lys(iPr)-(D-Arg)-2Nal-Gly-Cys]-(D-Arg)-Gly-(D-Phe)-Gly-NH2]	0.21 nM	0.7 nM
